What all share (assay): single-molecule two-colour coincidence fluorescence spectroscopy; GFP- and Cherry-tagged proteins made in LTE, diluted to about 100 pM, confocal detection with 488 and 561 nm lasers, room temperature; coincidence ratio C = mCherry/(GFP + mCherry)
In one series the target is human MEF2C (human, UniProt Q06413 1-473). To be noted: partners not purified.
For a further series, the target named is T1, RXRA (UniProt P19793 1-462).
T1 sequence (looked up): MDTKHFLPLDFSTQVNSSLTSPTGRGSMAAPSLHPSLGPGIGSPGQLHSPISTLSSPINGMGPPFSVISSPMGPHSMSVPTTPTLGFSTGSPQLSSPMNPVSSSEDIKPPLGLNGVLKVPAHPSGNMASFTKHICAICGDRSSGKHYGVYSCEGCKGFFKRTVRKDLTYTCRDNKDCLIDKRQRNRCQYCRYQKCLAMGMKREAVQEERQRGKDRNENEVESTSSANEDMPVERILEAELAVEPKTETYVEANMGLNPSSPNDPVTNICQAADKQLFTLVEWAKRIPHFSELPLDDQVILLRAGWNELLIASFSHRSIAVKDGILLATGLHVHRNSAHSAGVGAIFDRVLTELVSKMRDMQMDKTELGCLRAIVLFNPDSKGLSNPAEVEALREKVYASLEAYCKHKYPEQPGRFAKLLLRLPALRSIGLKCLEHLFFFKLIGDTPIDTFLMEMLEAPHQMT
To be noted: partners not purified.

Series [1] deals with the molecule itself.
A further series addresses human RBPJ (human, UniProt Q06330 1-500). The note with it: partners not purified.

Chain of human RBPJ (Q06330 whole entry): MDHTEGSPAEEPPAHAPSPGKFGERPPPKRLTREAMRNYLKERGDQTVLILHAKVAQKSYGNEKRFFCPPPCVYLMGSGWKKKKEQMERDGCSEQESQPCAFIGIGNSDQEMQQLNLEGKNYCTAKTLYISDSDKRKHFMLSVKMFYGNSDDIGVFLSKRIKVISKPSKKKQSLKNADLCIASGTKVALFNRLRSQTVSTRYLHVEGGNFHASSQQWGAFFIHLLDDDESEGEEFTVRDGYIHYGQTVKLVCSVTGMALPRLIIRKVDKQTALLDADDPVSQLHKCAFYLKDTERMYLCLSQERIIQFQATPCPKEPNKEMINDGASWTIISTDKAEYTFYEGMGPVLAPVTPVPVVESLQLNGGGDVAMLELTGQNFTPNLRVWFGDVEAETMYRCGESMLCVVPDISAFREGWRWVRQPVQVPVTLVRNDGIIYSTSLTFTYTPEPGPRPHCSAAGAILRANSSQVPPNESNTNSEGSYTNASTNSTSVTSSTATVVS
Chain of human MEF2C (Q06413 whole entry): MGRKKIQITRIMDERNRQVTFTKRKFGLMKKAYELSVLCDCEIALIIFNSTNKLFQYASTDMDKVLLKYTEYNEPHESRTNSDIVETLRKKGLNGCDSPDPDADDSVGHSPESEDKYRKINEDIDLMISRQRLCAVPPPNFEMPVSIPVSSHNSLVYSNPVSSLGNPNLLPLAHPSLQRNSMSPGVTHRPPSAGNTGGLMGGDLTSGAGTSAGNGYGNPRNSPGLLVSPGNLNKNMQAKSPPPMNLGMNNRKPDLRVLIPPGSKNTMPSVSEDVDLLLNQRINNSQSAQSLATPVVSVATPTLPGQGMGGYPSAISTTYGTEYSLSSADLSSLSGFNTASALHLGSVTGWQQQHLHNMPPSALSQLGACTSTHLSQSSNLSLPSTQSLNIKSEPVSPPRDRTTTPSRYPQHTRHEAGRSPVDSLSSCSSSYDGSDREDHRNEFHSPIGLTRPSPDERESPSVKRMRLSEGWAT

B1: full-length human SOX18 (natural protein, UniProt P35713 1-384, looked up)
chain: MQRSPPGYGAQDDPPARRDCAWAPGHGAAADTRGLAAGPAALAAPAAPASPPSPQRSPPRSPEPGRYGLSPAGRGERQAADESRIRRPMNAFMVWAKDERKRLAQQNPDLHNAVLSKMLGKAWKELNAAEKRPFVEEAERLRVQHLRDHPNYKYRPRRKKQARKARRLEPGLLLPGLAPPQPPPEPFPAASGSARAFRELPPLGAEFDGLGLPTPERSPLDGLEPGEAAFFPPPAAPEDCALRPFRAPYAPTELSRDPGGCYGAPLAEALRTAPPAAPLAGLYYGTLGTPGPYPGPLSPPPEAPPLESAEPLGPAADLWADVDLTEFDQYLNCSRTRPDAPGLPYHVALAKLGPRAMSCPEESSLISALSDASSAVYYSACISG
Turning to B1, the “stoichiometry N” value with human MEF2C was 2; with RXRA, 1; in series [1] it was 2; with human RBPJ, 2.

In general, stoichiometry N refers to the number of molecules, sites or subunits per partner or assembly.

For the origin of these results see PMC6265484, “Homodimerization regulates an endothelial specific signature of the SOX18 transcription factor” (Nucleic Acids Research, 2018).
